Measured values as given in the RNAGym collection of RNA variant scans (doi:10.1073/pnas.2313332121).
Variants at the floor of the assay were thinned out.

B1: TPR 5TU (parent)
chain: GGAUCUUCUCGAUCUAACAAAAAAGACAAAUCUGCCACAAAGCUUGAGAGCAUCUUCGGAUGCAGAGGCGGCAGCCUUCGGUGGCGCGAUAGCGCCAACGUUCUCAACUAUGACACGCAAAACGCGUGCUCCGUUGAAUGGAGUUUAUCAUG

Variants of: B1
Test: polymerase ribozyme fitness, log enrichment relative to wild type (log ratio); higher = more active; in vitro selection for triplet polymerase activity
Outline: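 In triplicate, a single round of in vitro selection was run on each mutant library, PCR-built and transcribed, covering one subunit of a heterodimeric triplet polymerase ribozyme. Frozen incubation at −7 °C followed annealing with a biotinylated primer, partner subunit and triplets, and extended constructs were then gel-excised, streptavidin-captured and taken through RT-PCR. Fitness is the logarithm of genotype enrichment over wild-type enrichment, from inverse-variance-weighted replicate averages of Illumina-sequenced inputs and outputs. […] only genotypes with ≥10 input reads and ≥1 read per output were kept.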
In the case of GGAUCUUCUCGAUCUAACAAAAAAGACAAAUCUGCCACAAAGCUUGAGAGCAUCUUCGGAUGCAGAGGCGGCAGCCUACGGUUGCGCGAUAGCGCCAACGUUCUCAACUAUGACACGCAAAACGCGUGCUCCGUUGAAUGGAGUUUAUCAUG [U78A G83U], the “polymerase ribozyme fitness (log ratio)” value is reported as no more than -4.2.
With GGAUCUUCUCGAUCUAACAAAAAAGACAAAUCUGCCACAAAGCUUGAGAGCAUCUUCGGAUGCAGAGGCGGCAGCCUUAGGUGGCGCGAUAGAGCCAACGUUCUCAACUAUGACACGCAAAACGCGUGCUCCGUUGAAUGGAGUUUAUCAUG [C79A C93A] the “polymerase ribozyme fitness (log ratio)” value was -4.12.
With GGAUCUUCUCGAUCUAACAAAAAAGACAAAUCUGCCACAAAGCUUGAGAGCAUCUUCGGAUGCAGAGGCGGCAGCCUACGGUGGCGUGAUGGCGCCACCGUUCUCAACUAUGACACGCACAACGCGUGCGCCGUUGAAUGAAGUUUAUCAUG [U78A C87U A91G A98C A120C U130G G141A] the “polymerase ribozyme fitness (log ratio)” value was no more than -4.2.
In the case of GGAUCUUCUCGAUCUAACAAAAAAGACAAAUCUGCCACAAAGCUUGAGAGCAUCUUCGGAUGCAGAGGCGGCAGCCUUAGGUGGCGCAAUAGCGCCAACGUUCUCAACUAUGACACGCAAAACGCGUGCUCCUUUGAAUAGAGUUUAUCAUG [C79A G88A G133U G140A], the “polymerase ribozyme fitness (log ratio)” value is reported as no more than -4.2.
In the case of GGAUCUUCUCGAUCUAACAAAAAAGACAAAUCUGCCACAAAGCUUGAGAGCAUCUUCGGAUGCAGAGGCGGCAGCCUUAGGUGGCGCGAUAGCGCCAACGUUCUCAACUAUGACACGCAAAACGCGUGCUCCGUUGAAUGGAGUUUAUCAUG [C79A], the “polymerase ribozyme fitness (log ratio)” value is reported as -4.12.
With GGAUCUUCUCGAUCUAACAAAAAAGACAAAUCUGCCACAAAGCUUGAGAGCAUCUUCGGAUGCAGAGGCGGCAGCCUACGGUGGCGCGAUAGCGCCAACGUUGUCAACUAUGACACGCAAAACGCGUGCUCCGAUGAAUGGAGUUUAUCAUG [U78A C103G U134A] the “polymerase ribozyme fitness (log ratio)” value was no more than -4.2.
For GGAUCUUCUCGAUCUAACAAAAAAGACAAAUCUGCCACAAAGCUUGAGAGCAUCUUCGGAUGCAGAGGCGGCAGCCUCCGGGGGCGCGAUAGCGCCAACGUGCUCAACUAUGACACGCAAAACGCGUGCUCCGUUGAAUGGAGUUUAUCAUG [U78C U82G U102G], the “polymerase ribozyme fitness (log ratio)” value was -3.57.
In the case of GGAUCUUCUCGAUCUAACAAAAAAGACAAAUCUGCCACAAAGCUUGAGAGCAUCUUCGGAUGCAGAGGCGGCAGCCUGAGGUGGCGCGAUAGCGCCAACGUUCUCAAUUAUGACACGCAAAACGCGUGCUCCGUUGAAUGGAGUUUAUCAUG [U78G C79A C108U], the “polymerase ribozyme fitness (log ratio)” value is reported as no more than -4.2.
For GGAUCUUCUCGAUCUAACAAAAAAGACAAAUCUGCCACAAAGCUUGAGAGCAUCUUCGGAUGCAGAGGCGGCAGCCUGCGGUGGCCCGAUAGCGCCAACGUGCUCAAUUAUGACACGCUAAACGCGUGCUCCGUUGAAUUGAGUUUAUCAUG [U78G G86C U102G C108U A119U G140U], the “polymerase ribozyme fitness (log ratio)” value was no more than -4.2.
For GGAUCUUCUCGAUCUAACAAAAAAGACAAAUCUGCCACAAAGCUUGAGAGCAUCUUCGGAUGCAGAGGCGGCAGCCUCCGGUCGCGCGAUAGCGCCAACGUUCUCAACUAUGACACGCAAAACGCAUGCUCCGUUGAAUGGAGUUUAUCAUG [U78C G83C G126A], the “polymerase ribozyme fitness (log ratio)” value was -0.883.
In the case of GGAUCUUCUCGAUCUAACAAAAAAGACAAAUCUGCCACAAAGCUUGAGAGCAUCUUCGGAUGCAGAGGCGGCAGCCUGCGGUGGCGCGAUAGCGCCAACGUUCUCAACUAUGACACCCAAAACGCGUGCUCCGUUGAAUGGAGUUUAUCAUG [U78G G117C], the “polymerase ribozyme fitness (log ratio)” value is reported as no more than -4.2.
With GGAUCUUCUCGAUCUAACAAAAAAGACAAAUCUGCCACAAAGCUUGAGAGCAUCUUCGGAUGCAGAGGCGGCAGCCGUCGGUGGCGUAAUAGCGCCAACGUUCUCAACUAUGACACGCAAAACGCGUGCUCCGUUGAAUCGGGUUUAUCAUG [U77G C87U G88A G140C A142G] the “polymerase ribozyme fitness (log ratio)” value was no more than -4.2.
With GGAUCUUCUCGAUCUAACAAAAAAGACAAAUCUGCCACAAAGCUUGAGAGCAUCUUCGGAUGCAGAGGCGGCAGCCUUAGGUGGCGCGAUAGUGCCAACGUUCUCAACUAUGACACGCGAAACGCGUGCUCCCUUGAAUGGAGUUUAUCAUG [C79A C93U A119G G133C] the “polymerase ribozyme fitness (log ratio)” value was no more than -4.2.
In the case of GGAUCUUCUCGAUCUAACAAAAAAGACAAAUCUGCCACAAAGCUUGAGAGCAUCUUCGGAUGCAGAGGCGGCAGCCUACGGUGGCGCGAUAGCGCCAACGUUCUUAACUAUGACUCGCAAAACGCGUGCUCCGUUGAAUGGAGUUUAUCAUG [U78A C105U A115U], the “polymerase ribozyme fitness (log ratio)” value is reported as no more than -4.2.
In the case of GGAUCUUCUCGAUCUAACAAAAAAGACAAAUCUGCCACAAAGCUUGAGAGCAUCUUCGGAUGCAGAGGCGGCAGCCUGCGGUGGCGGGAUAUCGCCCACGUUCUCAACUAUGACACGCAAAACGCGUGCUCCGUUGAAUGGAGUUUAUCAUG [U78G C87G G92U A97C], the “polymerase ribozyme fitness (log ratio)” value is reported as no more than -4.2.
For GGAUCUUCUCGAUCUAACAAAAAAGACAAAUCUGCCACAAAGCUUGAGAGCAUCUUCGGAUGCAGAGGCGGCAGCCUACGGUGGCGCGAUAGAUCCAACGUUCUCAACUAUGACACGCAAAACGCGUGCUCCGUUGAAUAGAAUUUAUCAUG [U78A C93A G94U G140A G143A], the “polymerase ribozyme fitness (log ratio)” value was no more than -4.2.
For GGAUCUUCUCGAUCUAACAAAAAAGACAAAUCUGCCACAAAGCUUGAGAGCAUCUUCGGAUGCAGAGGCGGCAGCCUGCGGUGGCGCGAUAGCGCCAACGUUCUCAACUAUGACACGCAAAACGCUUGCUCCGUUGAAUGGAGUUUAUCAUG [U78G G126U], the “polymerase ribozyme fitness (log ratio)” value was no more than -4.2.
For GGAUCUUCUCGAUCUAACAAAAAAGACAAAUCUGCCACAAAGCUUGAGAGCAUCUUCGGAUGCAGAGGCGGCAGCCUGCGGUGGCGAGAUAGCGCCAACGUUCUCAACUAUGACACGCAAAACGCGUGCUCCGUUGAAUGGAGUUUAUCAUG [U78G C87A], the “polymerase ribozyme fitness (log ratio)” value was no more than -4.2.
In the case of GGAUCUUCUCGAUCUAACAAAAAAGACAAAUCUGCCACAAAGCUUGAGAGCAUCUUCGGAUGCAGAGGCGGCAGCCUGCGGUGGCGCGAUAGCGCCAACGUUCUCAACUAUGACACGCAAAACGCGUGCUCCGUUGAAUGGAGUUUACCAUG [U78G U148C], the “polymerase ribozyme fitness (log ratio)” value is reported as -4.15.
